Drawing on article PMC4715492, this text covers fold of LRRK2 bound, against 2xMyc‐14‐3‐3 zeta for 1 substance.

For the experiment, the target named is 2xMyc‐PAK6 (p21‐activated kinase 6) (human) (UniProt Q9NQU5). In words: co-IP; lysates of HEK293T cells co-transfected with Flag-LRRK2 and Myc-PAK6 or Myc-14-3-3; immunoprecipitation with anti-Flag or with anti-Myc; washes in lysis buffer (50 mM Tris pH 7.5, 1% Triton X-100) with 0.25 M NaCl; immunoblot. For orientation: In western blotting, separated proteins are transferred to a membrane and probed.
Chain of UniProt Q9NQU5 (Q9NQU5 whole entry): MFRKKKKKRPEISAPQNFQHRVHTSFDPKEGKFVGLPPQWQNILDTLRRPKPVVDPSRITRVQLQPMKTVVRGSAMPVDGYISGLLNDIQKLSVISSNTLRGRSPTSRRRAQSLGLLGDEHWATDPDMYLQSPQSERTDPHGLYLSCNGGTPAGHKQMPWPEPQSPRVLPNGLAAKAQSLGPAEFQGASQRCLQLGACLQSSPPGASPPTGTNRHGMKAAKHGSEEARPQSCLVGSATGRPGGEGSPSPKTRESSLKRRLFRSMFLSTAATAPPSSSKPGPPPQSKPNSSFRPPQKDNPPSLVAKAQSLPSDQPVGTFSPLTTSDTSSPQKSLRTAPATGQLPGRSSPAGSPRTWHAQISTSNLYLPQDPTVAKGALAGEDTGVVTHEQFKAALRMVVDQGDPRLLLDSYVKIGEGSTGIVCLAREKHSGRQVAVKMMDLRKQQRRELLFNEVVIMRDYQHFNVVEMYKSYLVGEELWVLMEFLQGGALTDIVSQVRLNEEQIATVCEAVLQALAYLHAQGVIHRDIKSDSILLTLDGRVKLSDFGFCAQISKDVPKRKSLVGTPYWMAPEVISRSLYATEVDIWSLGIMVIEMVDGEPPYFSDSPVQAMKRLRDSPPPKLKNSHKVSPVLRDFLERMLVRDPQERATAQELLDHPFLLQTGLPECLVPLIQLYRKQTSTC

3xFlag‐LRRK2 wild type, Q5S007 1-2527 yielded a fold of LRRK2 bound, against 2xMyc‐14‐3‐3 zeta of 3.5 fold.
